From the RNAGym collection of RNA variant scans (doi:10.7554/elife.80360)

B1: Hairpin Ribozyme (parent)
chain: GUCCUCUUUCACGUGCGCGUGAAAGAGAGAAGUGAACCAGAGAAACACACGUUGUGGUAUAUUACCUGGUA

Variants of: B1
Assay: self-cleavage, relative activity (ratio to wild type); higher = more cleavage; co-transcriptional

Variant	self-cleavage
G25C C38A	0.0929
A24U U63G	0.146
A24U U63A	0.237
A24U G42A	0.257
G25C U33A	0.0816
G25A C66G	0.133
A24U U60A	0.57
A24U U60G	0.531
A24U G34U	1.22
A24U G34C	1.18
A24U G34A	1.02
A24U A59C	0.139
G25A G51U	0.724
A24U U33G	0.135
A24U U33A	0.11
G25U C37G	0.182
G25U C37U	0.427
A24U U62A	0.2
A24U U62C	0.293
G25A G56A	0.105
G25A G56C	0.117
G25A U62G	0.125
G25U C66G	0.177
G25U C66A	0.182

Variant	self-cleavage
G25C A43G	0.116
G25U G40U	0.132
A24U G68U	0.22
G25U C38A	0.216
G25C A44C	0.174
G25A A35G	0.738
G25A A35U	0.39
G25A U52C	0.7
G25A A61G	0.208
A24U G69U	0.192
A24U C50U	0.307
G25U A61C	0.231
G25U A61G	0.178
G25U A43C	0.166
A24U U58C	0.834
A24U U58A	0.724
A24U U58G	0.483
G25C G32C	0.116
G25A G42C	0.182
G25U A64G	0.428
G25U A64U	0.142
G25U A36G	0.639
G25C C46A	0.129
G25A G34C	1.34

Variant	self-cleavage
G25U A41U	1.08
G25C A49C	0.136
G25A A71U	0.553
G25A A71G	0.66
A24U G56A	0.212
G25A G57U	0.113
G25A A47U	0.108
G25C G56C	0.148
G25C G56U	0.153
G25C A47C	0.217
G25A G27C	0.155
G25C A61G	0.115
G25U A26C	0.21
G25U A26G	0.421
A24U G25U	0.682
G25C G29U	0.188
G25C G29C	0.166
G25A U60A	0.626
G25A U60C	0.976
A24U C37U	0.734
A24U C37G	0.292
G25A A45G	0.24
G25C G57U	0.216
G25C G57C	0.12

Variant	self-cleavage
G25C U70C	0.401
G25C U70A	0.574
A24U G27U	0.199
A24U G57A	0.196
G25C A71C	1.02
G25A C38A	0.173
G25A C38G	0.252
G25U A28G	0.971
G25U A28C	0.233
G25C A39G	0.168
A24U C66A	0.137
A24U C66U	0.412
A24U C66G	0.207
G25U A31U	0.166
G25U A31C	0.176
G25C C50U	0.192
G25C C48U	0.187
G25C C48A	0.129
G25C C48G	0.127
A24U C48G	0.245
G25U A59G	0.108
A24U C46U	0.264
A24U C46G	0.113
G25U G42A	0.144

Variant	self-cleavage
A24U C65G	0.302
A24U A71C	1.27
G25U A35G	0.656
G25C A30C	0.21
G25C A30U	0.116
G25C A30G	0.157
G25C U52A	0.594
G25C U52G	0.356
G25C U60G	0.297
G25C U60A	0.392
G25U G27U	0.17
G25U G27C	0.254
G25U G27A	0.131
G25C A28U	0.327
G25A C46G	0.135
G25C A41C	0.622
G25C A41G	0.298
A24U G29C	0.115
A24U G54U	0.476
G25A A28G	0.849
G25C C37U	0.502
G25U G29A	0.149
G25U G29C	0.153
G25C A26U	0.248

Variant	self-cleavage
G25C A26C	0.199
G25A A36C	0.301
G25A A36G	0.605
G25U A47U	0.205
G25A A26G	0.298
G25A A26C	0.124
G25A U70A	0.519
G25U G32A	0.128
G25A U55A	0.149
G25U G34A	0.897
G25A G29C	0.118
G25A G29U	0.164
G25U A30C	0.146
G25A G54C	0.219
G25A G54U	0.392
G25A G54A	0.292
A24U U70G	0.533
A24U U70A	0.877
A24U U70C	0.743
G25C G54C	0.139
G25C A31G	0.153
A24U A61G	0.231
G25A G32A	0.216
G25C G51U	0.624

Variant	self-cleavage
G25A A49C	0.232
G25A A43U	0.186
G25A A43C	0.136
G25C G42C	0.236
G25C G42U	0.182
G25C A35U	0.228
G25A U67A	0.118
G25U C46G	0.153
G25A A31U	0.0553
G25A A41C	0.814
G25A A41U	0.85
G25C U67C	0.134
G25A A39G	0.192
G25A A39U	0.285
A24U U67A	0.0716
A24U A47U	0.144
G25C U53A	0.497
G25A C50U	0.315
G25U A39G	0.191
G25U A45C	0.219
G25U A49C	0.179
G25U A49G	0.217
G25C G27C	0.171
